T1: EN2 (Engrailed-2), recombinant (human, UniProt P19622 1-333)
T1 sequence: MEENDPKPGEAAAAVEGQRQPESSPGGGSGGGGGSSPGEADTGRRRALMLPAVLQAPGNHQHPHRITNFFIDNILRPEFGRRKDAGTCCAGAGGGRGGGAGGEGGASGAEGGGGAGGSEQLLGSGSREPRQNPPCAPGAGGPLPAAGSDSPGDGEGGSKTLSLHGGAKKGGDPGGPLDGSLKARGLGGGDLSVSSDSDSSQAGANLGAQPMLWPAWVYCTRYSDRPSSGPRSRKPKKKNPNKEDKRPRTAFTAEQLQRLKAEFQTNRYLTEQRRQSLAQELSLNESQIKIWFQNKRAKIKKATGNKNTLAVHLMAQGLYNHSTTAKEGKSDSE


Experiments:
[1] = target: T1, EN2 (Engrailed-2), recombinant; experiment: magnetic-bead fluorescence assay (His-EN2 on NTA beads); 5 mM Mg2+; 20 mM Tris-HCl, 50 mM NaCl, 5 mM KCl, 5 mM MgCl2, pH 8.0, room temperature, 1 h; settings: protein: recombinant; tags: N-terminal His (pET28a); label: 5'-FAM
[2] = target: T1, EN2 (Engrailed-2), recombinant; experiment: plate fluorescence binding (EN2 immobilized); signal saturates at 250 nM EN2; 20 mM Tris-HCl, 50 mM NaCl, 5 mM KCl, 5 mM MgCl2, pH 8.0, room temperature, 1 h; settings: protein: recombinant; tags: N-terminal His (pET28a); label: 5'-FAM; hairpin

Binder	Kd [1]	binding result [2]
AGCGGATCCGAGGTGAGGAGCGCCGGTGAGACTCCTTCATTCTATCTGCT (structured_DNA) [EBA (trimmed H90)]	8.26 nM	
CGCATAATTACCTCCAGAAGGAGAGGTAATTATGCG (structured_DNA) [EN2 motif hairpin DNA]		binds

— article PMC9263169, “Aptamer-antibody hybrid ELONA that uses hybridization chain reaction to detect a urinary biomarker EN2 for bladder and prostate cancer”
